From patent US20250213707A1, “COMPOUND FOR INCREASING EFFICACY OF ONCOLYTIC VIRUSES” (ABLEVIA BIOTECH GMBH, priority 2022, published 2025)

B1: … (peptide)
peptide: EWGTVCNNGW
modifications: not checked
B2: … (peptide)
peptide: WGTVCNNGWS
modifications: not checked
B3: ESALWDC (peptide)
peptide: ESALWDC
modifications: not checked
B4: … (peptide)
peptide: RGNESALWDC
modifications: not checked
B5: … (peptide)
peptide: SCRGNESALW
modifications: not checked
B6: … (peptide)
peptide: VSCRGNESALWDC
modifications: not checked
B7: … (peptide)
peptide: ALWDCKHDGW
modifications: not checked
B8: … (peptide)
peptide: DHVSCRGNESALW
modifications: not checked
B9: … (peptide)
peptide: CRGNESALWD
modifications: not checked
B10: … (peptide)
peptide: NESALWDCKHDGW
modifications: not checked
B11: … (peptide)
peptide: ESALWDCKHDGWG
modifications: not checked
B12: … (peptide)
peptide: EWGTVCNNGWSME
modifications: not checked
B13: … (peptide)
peptide: CSGRVEVKVQEEW
modifications: not checked
B14: … (peptide)
peptide: QEEWGTVCNNGWS
modifications: not checked
B15: … (peptide)
peptide: WGTVCNNGWSMEA
modifications: not checked
B16: … (peptide)
peptide: EEWGTVCNNGWSM
modifications: not checked
B17: … (peptide)
peptide: VQEEWGTVCNNGW
modifications: not checked

Target: mAb Mac2-158
Assay: circular peptide array

Row | Binder | rank of binding signal [rank]
1 | B1 | 19
2 | B2 | 20
3 | B3 | 1
4 | B4 | 2
5 | B5 | 3
6 | B6 | 5
7 | B7 | 6
8 | B8 | 8
9 | B9 | 11
10 | B10 | 13
11 | B11 | 17
12 | B12 | 4
13 | B13 | 7
14 | B14 | 9
15 | B15 | 12
16 | B16 | 14
17 | B17 | 18
